Experimental findings from patent publication US20220010003A1 (Boehringer Ingelheim, published 2022) are described below.

In assay [1] the target is T1, recombinant mouse periostin (mouse, UniProt Q62009-2 24-811, limits assumed).
T1 construct: also called MoPOSTN
T1 sequence (looked up): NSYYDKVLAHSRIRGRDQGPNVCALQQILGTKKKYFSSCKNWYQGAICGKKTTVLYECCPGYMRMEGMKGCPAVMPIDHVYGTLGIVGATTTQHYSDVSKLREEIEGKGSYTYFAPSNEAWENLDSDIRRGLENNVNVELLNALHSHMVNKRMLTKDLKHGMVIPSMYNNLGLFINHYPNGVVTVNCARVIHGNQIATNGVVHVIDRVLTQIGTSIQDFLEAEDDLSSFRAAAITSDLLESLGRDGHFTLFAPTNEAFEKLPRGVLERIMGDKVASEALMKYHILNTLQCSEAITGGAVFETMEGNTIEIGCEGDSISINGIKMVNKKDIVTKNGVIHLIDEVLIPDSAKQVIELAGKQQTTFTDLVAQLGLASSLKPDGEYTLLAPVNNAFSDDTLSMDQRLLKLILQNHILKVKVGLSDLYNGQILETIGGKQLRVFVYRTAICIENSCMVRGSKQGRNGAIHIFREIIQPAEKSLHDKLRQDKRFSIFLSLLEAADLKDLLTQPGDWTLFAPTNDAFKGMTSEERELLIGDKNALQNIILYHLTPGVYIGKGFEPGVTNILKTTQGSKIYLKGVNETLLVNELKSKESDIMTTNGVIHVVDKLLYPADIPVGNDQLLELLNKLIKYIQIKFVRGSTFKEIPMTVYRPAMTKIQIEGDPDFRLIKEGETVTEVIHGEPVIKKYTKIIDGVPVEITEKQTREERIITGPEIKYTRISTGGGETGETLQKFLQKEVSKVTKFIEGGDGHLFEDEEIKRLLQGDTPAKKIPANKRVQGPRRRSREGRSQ
Kind of assay: BLI (Octet Red); Table 6 ties the low end of the range to mouse periostin. Here is the method:
(§1) NB0828's binding affinity was determined across human, mouse, rat, and cyno species. NB0828 affinities were determined using the octet red system. Briefly, anti-human Fc (AHC) biosensors were used to capture NB0828, followed by association of titrating amounts of either recombinant human, mouse, rat, or cyno periostin (100 nM→0 nM; 1:2 dilutions). Recombinant human, mouse, and rat periostin was purchased commercially from R&D systems, whereas cyno periostin was made internally.

In assay [2] the target is T1, recombinant mouse periostin. Kind of assay: binding ELISA, periostin coated. On the technique in general: ELISA stands for enzyme-linked immunosorbent assay.
The target in assay [3] is T2, recombinant human periostin (human, UniProt Q15063 22-836).
T2 construct: also called HuPOSTN; POSTN
T2 sequence: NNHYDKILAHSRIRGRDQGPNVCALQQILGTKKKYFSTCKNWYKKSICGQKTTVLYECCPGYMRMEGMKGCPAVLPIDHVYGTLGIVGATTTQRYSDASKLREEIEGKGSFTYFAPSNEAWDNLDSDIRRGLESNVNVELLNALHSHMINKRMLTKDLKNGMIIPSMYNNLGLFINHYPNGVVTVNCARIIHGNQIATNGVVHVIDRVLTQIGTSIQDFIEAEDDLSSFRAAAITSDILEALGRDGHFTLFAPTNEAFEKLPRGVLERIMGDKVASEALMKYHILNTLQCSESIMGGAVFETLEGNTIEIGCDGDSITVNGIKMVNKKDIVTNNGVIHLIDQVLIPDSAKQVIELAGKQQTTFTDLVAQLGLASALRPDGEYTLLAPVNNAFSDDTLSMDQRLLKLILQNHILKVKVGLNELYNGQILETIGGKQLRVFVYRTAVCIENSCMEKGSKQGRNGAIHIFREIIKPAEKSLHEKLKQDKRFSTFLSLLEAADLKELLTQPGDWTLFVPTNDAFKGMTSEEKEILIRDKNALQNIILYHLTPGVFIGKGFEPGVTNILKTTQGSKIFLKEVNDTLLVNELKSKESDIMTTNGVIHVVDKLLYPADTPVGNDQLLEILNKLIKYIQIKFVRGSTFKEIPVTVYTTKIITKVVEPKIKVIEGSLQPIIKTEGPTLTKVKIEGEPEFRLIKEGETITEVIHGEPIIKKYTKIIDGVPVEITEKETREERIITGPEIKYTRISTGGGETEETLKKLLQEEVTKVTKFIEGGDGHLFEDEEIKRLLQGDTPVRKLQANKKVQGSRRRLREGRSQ
Kind of assay: binding ELISA, periostin coated.

Assay [4] has as its target T3, recombinant rat periostin (rat, UniProt A0A8I6AHK0 24-838).
T3 construct: also called RatPOSTN
Kind of assay: BLI (Octet Red), NB0828 captured on anti-human Fc (AHC) biosensors, periostin titrated from 100 nM. Here is the method:
as §1
(In BLI a coated tip is dipped into the sample, and binding shifts an interference pattern.)

Assay [5] has as its target T2, recombinant human periostin. Described as above. Here is the method: as §1

B1: NB0828 (antibody, V domains shown)
VH: QVQLVQSGAEVKKPGASVKVSCKASGYTFTSYGISWVRQAPGQGLEWMGWISAYNGNTNYAQKLQGRVTMTTDTSTSTAYMELRSLRSDDTAVYYCARDMLVVPFDYWGQGTLVTVSS
VL: QSVLTQSSSASGTPGQTVTVSCSGSSSDIGSNRVNWYQQLPGTAPKLLIYSNDQRPSGVPDRFSGSKSGTSASLAISGLQSADEADYYCAAWDDSLSTYVFGSGTKVTVL
On to B1, for which the results for the Kd in assay [1], in assay [4] and in assay [5] were 0.1 nM, 0.54 nM and 0.351 nM, respectively. Also, the EC50 – broadly, the concentration giving half of the maximal effect – came out at 0.15 nM in assay [2] and 0.12 nM in assay [3]. Besides, the results for the koff in assay [4] and in assay [5] were 0.000393 s⁻¹ and 0.000246 s⁻¹, respectively. In addition, the results for the association rate constant (kon) in assay [4] and in assay [5] were 727000 M⁻¹ s⁻¹ and 702000 M⁻¹ s⁻¹, respectively.
